In patent US20020098527A1 (Kyowa Kirin, published 2002):

T1: hCCR4 partial peptide (Compound 1) (human, conjugated with thyroglobulin (THY) using SMCC as the crosslinking agent)
T1 construct: Synthetic peptide, coated on ELISA plates as a THY conjugate
T1 peptide: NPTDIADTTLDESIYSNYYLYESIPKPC

T2: human CC chemokine receptor 4 (human CCR4) (human, UniProt P51679 1-360)
T2 construct: Expressed on mouse EL-4 cells transfected with hCCR4 DNA (CCR4/EL-4); also called hCCR4; K5-5
T2 sequence: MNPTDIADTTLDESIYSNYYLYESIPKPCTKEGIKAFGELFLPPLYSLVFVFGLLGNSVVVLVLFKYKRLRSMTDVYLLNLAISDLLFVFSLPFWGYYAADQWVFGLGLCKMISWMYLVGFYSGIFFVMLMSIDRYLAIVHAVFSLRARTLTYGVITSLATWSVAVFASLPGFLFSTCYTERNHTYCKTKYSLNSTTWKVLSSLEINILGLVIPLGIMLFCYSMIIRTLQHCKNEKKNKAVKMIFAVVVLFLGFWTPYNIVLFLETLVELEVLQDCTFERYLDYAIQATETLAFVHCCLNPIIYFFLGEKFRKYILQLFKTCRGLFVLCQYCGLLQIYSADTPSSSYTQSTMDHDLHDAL

T3: mCCR4 partial peptide (Compound 2) (mouse, conjugated with thyroglobulin (THY) using SMCC as the crosslinking agent)
T3 construct: Synthetic peptide, coated on ELISA plates as a THY conjugate
T3 peptide: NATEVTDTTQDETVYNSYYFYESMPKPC


How the values were obtained:
[1] = biological target: T1, hCCR4 partial peptide (Compound 1); test: ELISA on plate-coated hCCR4 partial peptide conjugate
[2] = biological target: T2, human CC chemokine receptor 4 (human …); test: flow cytometry (immunofluorescent method) on hCCR4-high-expressing EL-4 cells
Experimental: They were selected by an immunofluorescent method using KM2160 prepared in Example 1(5). Into a 96 well U shape plate, 2×10⁵ cells of each of selected several tens of the gene-introduced clones was dispensed. KM2160 labeled with biotin by a known method (Enzyme Antibody Method, published by Gakusai Kikaku) was diluted to 5 μg/ml with a buffer for FACS (1% BSA-PBS, 0.02% EDTA, 0.05% NaN₃, pH 7.4), human IgG (manufactured by Welfide) was diluted to 3.75 mg/ml to prevent nonspecific staining, each of the thus diluted antibody solution was dispensed at 200 μl/well, and the mixture was allowed to react in ice for 30 minutes. As a negative control, biotinylated anti-IL-5R antibody (WO 97/10354) was used at the same concentration. After washing twice with 200 μl/well of the buffer, streptoavidin-PE (manufactured by Becton Dickinson Japan) was dispensed at 20 μl/well. Thirty minutes after the reaction in ice in the dark, the cells were washed three times with 200 μl/well and finally suspended to 500 μl, and the fluorescence intensity was measured by a flow cytometer to select one cell line having the highest fluorescence intensity.
Reactivity of the purified anti-CCR4 chimeric antibody KM2760 with the hCCR4-high-expressing cell (hereinafter referred to as “CCR4/EL-4”) produced in 3(4) of Example 2 was measured in the same manner as in 3(4) of Example 2.

[3] = biological target: T3, mCCR4 partial peptide (Compound 2); test: ELISA, THY-peptide conjugate coated at 10 µg/ml, antibody concentration varied
Experimental: (§1) The conjugate prepared in the above manner was dispensed at 10 μg/ml and 50 μl/well into a 96 well plate for EIA (manufactured by Greiner) and adhered thereto by incubating it at 4° C. overnight. After washing with PBS, 1% BSA-containing PBS (hereinafter referred to as “1% BSA-PBS”) was added at 100 μl/well, and the mixture was allowed to react at room temperature for 1 hour to block the remaining active groups. After removing 1% BSA-PBS, diluted solutions of a transformant culture supernatant, a purified mouse antibody or a purified human chimeric antibody was dispensed at 50 μl/well, and the mixture was allowed to react at room temperature for 1 hour. […] After the reaction, each well was washed with Tween-PBS, ABTS solution (a solution prepared by dissolving 0.55 g of 2,2′-azino-bis(3-ethylbenzothiazoline-6-sulfonic acid)ammonium in 1 liter of 0.1 M citrate buffer (pH 4.2), and adding 1 μl/ml of hydrogen peroxide just before use) was dispensed at 50 μl/well for color developing, and the absorbance at 415 nm (hereinafter referred to as “OD₄₁₅”) was measured.
(§2) Reactivity of the purified anti-CCR4 chimeric antibody KM2760 to human CCR4 and mouse CCR4 was measured by ELISA shown in 2(3) of Example 2. […]

[4] = biological target: T1, hCCR4 partial peptide (Compound 1); test: as above
Experimental: as §1, §2

Binder | binding result [1] | binding result [2] | binding result [3] | binding result [4]
mouse anti-CCR4 monoclonal antibody KM2160 (antibody, mouse IgG1, V domains shown, Mouse IgG1 class with a kappa L chain, produced by hybridoma KM2160; also called anti-CCR4 mouse antibody KM2160) VH: EVQLVESGGDLMKPGGSLKISCAASGFIFSNYGMSWVRQTPDMRLEWVATISSASTYSYYPDSVKGRFTISRDNAENSLYLQMNSLRSEDTGIYYCGRHSDGNFAFGYWGRGTLVTVSA VL: DVLMTQTPLSLPVSLGDQASISCRSSRNIVHINGDTYLEWYLQRPGQSPKLLIYKVSNRFSGVPDRFSGSGSGTDFTLKISRVEAEDLGVYYCFQGSLLPWTFGGGTRLEIRR | binds | – | – | –
anti-CCR4 chimeric antibody KM2760 (antibody, V domains shown, Human chimeric antibody: CH is human IgG1 subclass and CL is human kappa class (vector pKANTEX93); It was expressed in rat YB2/0 cells; It was used biotinylated in the flow cytometry assays) VH: EVQLVESGGDLMKPGGSLKISCAASGFIFSNYGMSWVRQTPDMRLEWVATISSASTYSYYPDSVKGRFTISRDNAENSLYLQMNSLRSEDTGIYYCGRHSDGNFAFGYWGRGTLVTVSA VL: DVLMTQTPLSLPVSLGDQASISCRSSRNIVHINGDTYLEWYLQRPGQSPKLLIYKVSNRFSGVPDRFSGSGSGTDFTLKISRVEAEDLGVYYCFQGSLLPWTFGGGTRLEIRR | – | binds | binds | binds
